Measurements: paper PMC8809517, “Cofactor-independent RNA editing by a synthetic S-type PPR protein”
Changes are numbered by the printed parent chain.

T1: GFP-9S library array, motif 4 ND N98V;D124S (synthetic construct, N98V;D124S)
T1 chain: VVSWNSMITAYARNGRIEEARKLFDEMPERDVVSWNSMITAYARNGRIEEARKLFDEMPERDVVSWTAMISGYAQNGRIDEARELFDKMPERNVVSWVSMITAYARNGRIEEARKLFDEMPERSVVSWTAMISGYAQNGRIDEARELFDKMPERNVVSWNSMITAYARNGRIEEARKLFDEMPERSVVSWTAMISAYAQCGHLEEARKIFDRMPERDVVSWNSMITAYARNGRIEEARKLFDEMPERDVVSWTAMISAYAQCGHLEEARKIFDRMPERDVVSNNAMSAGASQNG

T2: GFP-9S library array, motif 4 ND N98A;D124W (synthetic construct, N98A;D124W)
T2 chain: T1 chain with V98A, S124W

T3: GFP-9S library array, motif 4 ND N98H;D124T (synthetic construct, N98H;D124T)
T3 chain: T1 chain with V98H, S124T

T4: GFP-9S library array, motif 4 ND N98M;D124C (synthetic construct, N98M;D124C)
T4 chain: T1 chain with V98M, S124C

T5: GFP-9S library array, motif 4 ND N98E;D124E (synthetic construct, N98E;D124E)
T5 chain: T1 chain with V98E, S124E


Legend:
Assay in all cases: high-throughput RNA pulldown from lysate on Ni-NTA beads; HRP: 50 mM Tris pH 8, 150 mM NaCl, 1 mM beta-mercaptoethanol, 50 ug/ml BSA, 3 ug/ml yeast RNA, 0.5% heparin; ITC and FP: Tris pH 8, 200 mM KCl, 5% glycerol; MST: 50 mM Tris pH 8, 200 mM NaCl, 1 mM DTT, BSA, heparin, 0.05% Tween 20
Settings in all cases: tags: N-terminal His-eGFP
[1] = biological target: T1, GFP-9S library array, motif 4 ND …
[2] = biological target: T2, GFP-9S library array, motif 4 ND …
[3] = biological target: T3, GFP-9S library array, motif 4 ND …
[4] = biological target: T4, GFP-9S library array, motif 4 ND …
[5] = biological target: T5, GFP-9S library array, motif 4 ND …

Binder	Kd ([1]; label: 5' Cy5)	Kd ([2]; label: 5' Cy5)	Kd ([3]; label: 5' Cy5)	Kd ([4]; label: 5' Cy5)	Kd ([5]; label: 5' Cy5)	Kd ([1]; label: 5' IRDye 800CW)	Kd ([2]; label: 5' IRDye 800CW)	Kd ([3]; label: 5' IRDye 800CW)	Kd ([4]; label: 5' IRDye 800CW)	Kd ([5]; label: 5' IRDye 800CW)
AUUACACGUGA (ssRNA) [Cy5-rpoA]	69.5 nM	129 nM	50.9 nM	99.7 nM	248 nM					
AUUAGACGUGA (ssRNA) [Cy5-rpoA-G]	50.4 nM	104 nM	75 nM	68.8 nM	169 nM					
AUUAAACGUGA (ssRNA) [IR-rpoA-A]						26.8 nM	138 nM	103 nM	85.3 nM	387 nM
AUUAUACGUGA (ssRNA) [IR-rpoA-U]						50.3 nM	149 nM	24.9 nM	193 nM	675 nM
